The target in test [1] is T1, MenDRA (MenD-RIAD with one RIAD peptide tag) (E. coli).
T1 sequence (P17109 whole entry, looked up): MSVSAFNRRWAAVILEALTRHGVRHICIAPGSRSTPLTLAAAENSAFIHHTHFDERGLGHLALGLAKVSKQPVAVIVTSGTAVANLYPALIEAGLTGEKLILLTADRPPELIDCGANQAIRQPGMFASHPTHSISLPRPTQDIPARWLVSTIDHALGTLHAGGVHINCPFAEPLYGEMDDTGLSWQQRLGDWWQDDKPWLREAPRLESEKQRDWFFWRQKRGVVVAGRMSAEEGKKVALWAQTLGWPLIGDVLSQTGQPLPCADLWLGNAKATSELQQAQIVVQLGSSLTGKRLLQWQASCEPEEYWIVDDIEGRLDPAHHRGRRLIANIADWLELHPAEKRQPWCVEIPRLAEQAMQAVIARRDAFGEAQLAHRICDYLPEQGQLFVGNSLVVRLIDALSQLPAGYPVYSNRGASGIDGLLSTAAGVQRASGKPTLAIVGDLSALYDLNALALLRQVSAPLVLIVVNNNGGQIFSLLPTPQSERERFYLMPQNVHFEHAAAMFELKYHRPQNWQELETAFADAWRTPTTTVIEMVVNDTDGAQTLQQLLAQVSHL
The test can be described thus: SEC; 1.5 mg of enzyme fused with RIAD mixed with two-fold molar excess of enzyme fused with RIDD in Tris buffer pH 7.8, 1 mM EDTA, 0.02% Tween-20, no incubation; Superdex 200 10/300 GL, 0.4 mL/min, Tris pH 7.8, 50 mM NaCl; masses from a calibration curve. For orientation: SEC sorts molecules by how far they enter the pores of the column.

Test [2] addresses T2, MenDRA2 (MenD-RIAD-RIAD with two sequential RIAD peptide tags) (E. coli).
T2 sequence (P17109 whole entry, looked up): T1 sequence (P17109 whole entry, looked up)
The description is as above.

B1: MenHRD (MenH-RIDD with one RIDD peptide tag), P10644 1-44 (enzyme)
chain: MILHAQAKHGKPGLPWLVFLHGFSGDCHEWQEVGEAFADYSRLYVDLPGHGGSAAISVDGFDDVTDLLRKTLVSYNILDFWLVGYSLGGRVAMMAACQGLAGLCGVIVEGGHPGLQNAEQRAERQRSDRQWVQRFLTEPLTAVFADWYQQPVFASLNDDQRRELVALRSNNNGATLAAMLEATSLAVQPDLRANLSARTFAFYYLCGERDSKFRALAAELAADCHVIPRAGHNAHRENPAGVIASLAQILRFGGGGSGGGGSGGGGSSLRECELYVQKHNIQALLKDSIVQLCTARPERPMAFLREYFEKLEKEEAK
modifications: not checked
For the molecule B1, the stoichiometry N (MenH per 4 MenD (per particle)) worked out at 8 in test [1] and 16 in test [2].

These data come from paper PMC6751169.
